Holding throughout (test): ELISA-like plate assay, captured BMP-7 from conditioned media, receptor-Fc detection
Assay [1] concerns the target T1, BMPRII receptor-Fc fusion (UniProt Q13873).
T1 sequence (looked up): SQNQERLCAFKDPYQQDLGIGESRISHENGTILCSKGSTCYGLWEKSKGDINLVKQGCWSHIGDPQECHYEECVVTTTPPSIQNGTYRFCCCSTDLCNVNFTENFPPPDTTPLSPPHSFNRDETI

Assay [2] concerns the target T2, BMPRIb receptor-Fc fusion (UniProt O00238).
T2 sequence (looked up): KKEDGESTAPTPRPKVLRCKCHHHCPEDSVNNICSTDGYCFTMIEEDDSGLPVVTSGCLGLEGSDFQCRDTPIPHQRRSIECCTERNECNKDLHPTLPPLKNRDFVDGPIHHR

For assay [3], the target named is ActRIIa receptor-Fc fusion (UniProt P27037).
For assay [4], the target named is BMPRIa receptor-Fc fusion (UniProt P36894).
Sequence of BMPRIa receptor-Fc fusion (P36894 24-152 limits assumed): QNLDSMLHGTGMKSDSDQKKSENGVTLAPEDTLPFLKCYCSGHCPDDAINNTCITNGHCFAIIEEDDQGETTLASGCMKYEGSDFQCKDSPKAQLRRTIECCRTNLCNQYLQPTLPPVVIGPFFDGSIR

Sequence of ActRIIa receptor-Fc fusion (P27037 20-134 limits assumed): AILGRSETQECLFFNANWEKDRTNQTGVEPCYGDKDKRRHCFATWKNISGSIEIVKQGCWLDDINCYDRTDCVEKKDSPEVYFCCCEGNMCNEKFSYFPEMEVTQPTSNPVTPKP

In assay [1], “BMP-7 variant L21E (from UniProt P18075 293-431 at identity 0.99)) (ligand)” showed a BMPRII binding (relative to wild type = 1.0) (relative to wild type) of 0.07.

For the substance “BMP-7 variant F117S (from UniProt P18075 293-431 at identity 0.99)) (ligand)”, the BMPRIb binding (relative to wild type = 1.0) (relative to wild type) in assay [2] was -0.08. In addition, the BMPRII binding (relative to wild type = 1.0) (relative to wild type) in assay [1] was -0.04.

As for “BMP-7 variant S77H (from UniProt P18075 293-431 at identity 0.99)) (ligand)”, in assay [1], the BMPRII binding (relative to wild type = 1.0) (relative to wild type) was 0.08.

For “BMP-7 variant W52P (from UniProt P18075 293-431 at identity 0.99)) (ligand)”, the ActRIIa binding (relative to wild type = 1.0) (relative to wild type) in assay [3] came to 0.07. For the same substance, the BMPRIa binding (relative to wild type = 1.0) (relative to wild type) in assay [4] was determined as 0.03. The same substance displayed a BMPRII binding (relative to wild type = 1.0) (relative to wild type) in assay [1] of 0.01.

On to “BMP-7 variant F93A (from UniProt P18075 293-431 at identity 0.99)) (ligand)”, for which, in assay [1], the BMPRII binding (relative to wild type = 1.0) (relative to wild type) worked out at 0.09.

“BMP-7 variant W55A (from UniProt P18075 293-431 at identity 0.99)) (ligand)” had an ActRIIa binding (relative to wild type = 1.0) (relative to wild type) in assay [3] of 0.09. For the same substance, the BMPRII binding (relative to wild type = 1.0) (relative to wild type) in assay [1] worked out at 0.03.

In assay [3], “BMP-7 variant L115A (from UniProt P18075 293-431 at identity 0.99)) (ligand)” registered an ActRIIa binding (relative to wild type = 1.0) (relative to wild type) of 0.01. The substance also registered a BMPRIa binding (relative to wild type = 1.0) (relative to wild type) in assay [4] of -0.02. This substance also showed a BMPRII binding (relative to wild type = 1.0) (relative to wild type) in assay [1] of -0.01.

In the case of “BMP-7 variant R48E (from UniProt P18075 293-431 at identity 0.99)) (ligand)”, the BMPRIb binding (relative to wild type = 1.0) (relative to wild type) in assay [2] was -0.51. In assay [1], this substance had a BMPRII binding (relative to wild type = 1.0) (relative to wild type) of -0.13.

(Values after US20060058231A1.)
